The nature of data set [1]: Serum elastase level, Tmax, Cmax, AUC after intraduodenal aqueous solution (Effect Example 3). The data set is classed as in vivo, beagles. Particulars: intraduodenal 5 ml solution, 55.2 mg elastase (326 EL. U/mg). On the procedure:
An aqueous control solution was prepared by adding 55.2 mg of elastase (326 EL. U/mg) alone to 5 ml of water.
Four beagles (weighing 10.5-14.0 kg) were divided into 2 aliquot groups, each being 2 subjects. […] The subjects were fasted overnight, and the abdomen was cut open along the median line under anesthesia in the following morning. Then, 5 ml of the respective sample and control solutions were introduced into duodendum using injection tube, followed by immediate suturing. 3 ml of the blood were respectively taken prior to the administration of the solutions, and at the elapsed times of 1, 2, 4, 6, 8, 10, 12 and 24 hours after the administration of the solutions. About 1 ml of serum was respectively separated by means of centrifuge.
Serum elastase levels were measured in accordance with "Enzyme-immunological method", as described in the effect example 1.

The conditions of data set [2]: intraintestinal, rats, cited from earlier work.
The subject of data set [3] is elastin. Kind of data set: Elastase activity (decomposition of insoluble elastin). Particulars: pH 8.8, 37°C, 30 min, elastin substrate. The data set is classed as biochemical. On the procedure: In the present invention, the compounding ratio of pure elastase to sucrose fatty acid ester is specified in terms of weight ratio for convenience' sake. […] That is, at present available pure elastase has an activity of 340 elastase activity units (abbreviated as 340 EL. U) per mg measured by the method to be described hereinafter, and therefore the composition of the present invention is also defined as an elastase-containing composition containing 0.5 to 50 mg of sucrose fatty acid ester per 340 EL. U of elastase. More specifically, the composition of the present invention is an elastase-containing composition which contains 0.5 to 50 mg of sucrose fatty acid ester per 340 EL. U (measured by the measuring method described hereinafter) of elastase.
An elastase-containing sample is accurately weighed, and dissolved in a diluted Palitzsch buffer solution to make a 250 ml elastase enzyme solution. 1 ml of the elastase enzyme solution is added to 4 ml of a substrate solution, and incubation is conducted for 30 minutes at 37°±0.1° C. with shaking at 100 strokes/min. […]
The amount of soluble elastin produced per minute as a result of decomposition of insoluble elastin under the above-described measuring conditions is determined as an amount of tyrosine (μg) by which EL. […]

For data set [4] the following is noted: background statement; cited from earlier work.
The conditions of data set [5]: statement; cited from earlier work.

Read-outs that look alike come from different tables or passages of the source.

Consider “Control Solution: 55.2 mg of elastase (326 EL. U/mg) alone in 5 ml of water”, for which the AUC0-24hr in data set [1] is 125.84 ng·h/mL; in data set [1] (1440 min), 307.18 ng·h/mL.

In the case of “^131 I-elastase: 131I-labelled elastase dissolved in a physiological saline solution”, the “amount absorbed (blood vessel route plus lymphatic vessel route)” value in data set [2] (1 mg in physiological saline) was 0.15%; in data set [2] (5 mg in physiological saline), 0.05%.

In data set [3], “elastase: decomposing enzyme for elastin, extracted from porcine pancreas; polypeptide having a molecular weight of 25,900” registered an elastase activity of 340 EL. U per mg. For the same substance, in data set [4], the “effect on elasticity of blood vessel” value was “increase elasticity of blood vessel” and the “effect on serum lipid level” value was “normalize serum lipid level”. The “stability to gastric acid” value in data set [5] is recorded as “unstable to gastric acid”.

Values taken from patent publication US4397951A, “Elastase-containing composition permitting elastase to be absorbed in increased amount” (Eisai Co., Ltd., priority 1981, dated 1983).
